Test results as given in patent publication USRE47150 (Bayer, dated 2018).

Columns and labels:
[1] = target: T1, human tissue factor pathway inhibitor (TFPI) (human, UniProt P10646 29-304, limits assumed); assay: competitive ELISA
T1 construct: bought; also called hTFPI; human TFPI
T1 sequence (looked up): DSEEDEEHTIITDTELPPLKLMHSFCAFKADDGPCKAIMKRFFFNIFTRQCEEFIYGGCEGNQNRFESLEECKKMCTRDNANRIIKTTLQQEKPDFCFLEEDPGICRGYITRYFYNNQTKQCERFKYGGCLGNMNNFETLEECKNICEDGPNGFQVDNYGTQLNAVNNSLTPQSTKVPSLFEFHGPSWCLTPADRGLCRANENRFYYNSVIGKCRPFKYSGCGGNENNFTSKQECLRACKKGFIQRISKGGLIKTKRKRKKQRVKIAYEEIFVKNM

[2] = target: T2, mouse tissue factor pathway inhibitor (TFPI) (mouse, UniProt O54819 29-289, limits assumed); assay: competitive ELISA
T2 construct: bought; also called mTFPI; murine TFPI
T2 sequence (looked up): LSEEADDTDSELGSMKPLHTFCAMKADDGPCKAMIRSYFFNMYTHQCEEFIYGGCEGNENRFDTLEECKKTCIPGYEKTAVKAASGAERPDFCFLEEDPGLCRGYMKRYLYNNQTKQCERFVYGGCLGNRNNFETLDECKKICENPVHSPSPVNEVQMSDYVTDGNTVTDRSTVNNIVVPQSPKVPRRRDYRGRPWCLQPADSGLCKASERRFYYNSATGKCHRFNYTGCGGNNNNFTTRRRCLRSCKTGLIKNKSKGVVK

B1: 4B7 HC N32D+D62Q+Y112D/LC S32R+D33R+N35I+D97T (Fab, V domains shown)
VH: QVQLQQSGPGLVKPSQTLSLTCAISGDSVSSDSAAWSWIRQSPGRGLEWLGIIYKRSKWYNQYAVSVKSRITINPDTSKNQFSLQLNSVTPEDTAVYYCARWHSDKHWGFDDWGQGTLVTVSS
VL: DIVMTQSPLSLPVTPGEPASISCRSSQSLVFRRGITYLNWYLQKPGQSPQLLIYKGSNRASGVPDRFSGSGSGTDFTLKISRVEAEDVGVYYCQQYTSYPLTFGQGTKVEIKR
For B1, the variant/HC_D62R [1] was 17.2 ratio and the variant/HC_D62R [2] was 13.4 ratio.

B2: 4B7 HC N32D+D62R+H107M+Y112D/LC D33R+N35T (Fab, V domains shown)
VH: QVQLQQSGPGLVKPSQTLSLTCAISGDSVSSDSAAWSWIRQSPGRGLEWLGIIYKRSKWYNRYAVSVKSRITINPDTSKNQFSLQLNSVTPEDTAVYYCARWHSDKMWGFDDWGQGTLVTVSS
VL: DIVMTQSPLSLPVTPGEPASISCRSSQSLVFSRGTTYLNWYLQKPGQSPQLLIYKGSNRASGVPDRFSGSGSGTDFTLKISRVEAEDVGVYYCQQYDSYPLTFGQGTKVEIKR
B2 was tested, and the variant/HC_D62R [1] was 28.2 ratio and the variant/HC_D62R [2] was 29.3 ratio.

B3: 4B7 HC N32D+D62Q+Y112D/LC V30L+F31I+D33F+N35I (Fab, V domains shown)
VH: QVQLQQSGPGLVKPSQTLSLTCAISGDSVSSDSAAWSWIRQSPGRGLEWLGIIYKRSKWYNQYAVSVKSRITINPDTSKNQFSLQLNSVTPEDTAVYYCARWHSDKHWGFDDWGQGTLVTVSS
VL: DIVMTQSPLSLPVTPGEPASISCRSSQSLLISFGITYLNWYLQKPGQSPQLLIYKGSNRASGVPDRFSGSGSGTDFTLKISRVEAEDVGVYYCQQYDSYPLTFGQGTKVEIKR
Work on B3 yielded a variant/HC_D62R [1] of 22.9 ratio and a variant/HC_D62R [2] of 24.6 ratio.

B4: 4B7 HC N32D+D62R+H107M+Y112D/LC F31I+S32R+D33F+N35T (Fab, V domains shown)
VH: QVQLQQSGPGLVKPSQTLSLTCAISGDSVSSDSAAWSWIRQSPGRGLEWLGIIYKRSKWYNRYAVSVKSRITINPDTSKNQFSLQLNSVTPEDTAVYYCARWHSDKMWGFDDWGQGTLVTVSS
VL: DIVMTQSPLSLPVTPGEPASISCRSSQSLVIRFGTTYLNWYLQKPGQSPQLLIYKGSNRASGVPDRFSGSGSGTDFTLKISRVEAEDVGVYYCQQYDSYPLTFGQGTKVEIKR
With B4 the variant/HC_D62R [1] was 29.5 ratio and the variant/HC_D62R [2] was 19.7 ratio.

B5: 4B7 HC N32D+D62R+H103D+H107M+Y112D/LC S32R+N35T (Fab, V domains shown)
VH: QVQLQQSGPGLVKPSQTLSLTCAISGDSVSSDSAAWSWIRQSPGRGLEWLGIIYKRSKWYNRYAVSVKSRITINPDTSKNQFSLQLNSVTPEDTAVYYCARWDSDKMWGFDDWGQGTLVTVSS
VL: DIVMTQSPLSLPVTPGEPASISCRSSQSLVFRDGTTYLNWYLQKPGQSPQLLIYKGSNRASGVPDRFSGSGSGTDFTLKISRVEAEDVGVYYCQQYDSYPLTFGQGTKVEIKR
In the case of B5, the variant/HC_D62R [1] is reported as 14 ratio and the variant/HC_D62R [2] is reported as 18.4 ratio.

B6: 4B7 HC N32D+D62R+H107M+Y112D/LC D33R+N35I+D97T (Fab, V domains shown)
VH: QVQLQQSGPGLVKPSQTLSLTCAISGDSVSSDSAAWSWIRQSPGRGLEWLGIIYKRSKWYNRYAVSVKSRITINPDTSKNQFSLQLNSVTPEDTAVYYCARWHSDKMWGFDDWGQGTLVTVSS
VL: DIVMTQSPLSLPVTPGEPASISCRSSQSLVFSRGITYLNWYLQKPGQSPQLLIYKGSNRASGVPDRFSGSGSGTDFTLKISRVEAEDVGVYYCQQYTSYPLTFGQGTKVEIKR
With B6 the variant/HC_D62R [1] was 29.1 ratio and the variant/HC_D62R [2] was 28.1 ratio.

B7: 4B7 HC N32D+D62R+H107M+Y112D/LC D33R (Fab, V domains shown)
VH: QVQLQQSGPGLVKPSQTLSLTCAISGDSVSSDSAAWSWIRQSPGRGLEWLGIIYKRSKWYNRYAVSVKSRITINPDTSKNQFSLQLNSVTPEDTAVYYCARWHSDKMWGFDDWGQGTLVTVSS
VL: DIVMTQSPLSLPVTPGEPASISCRSSQSLVFSRGNTYLNWYLQKPGQSPQLLIYKGSNRASGVPDRFSGSGSGTDFTLKISRVEAEDVGVYYCQQYDSYPLTFGQGTKVEIKR
With B7 the variant/HC_D62R [1] was 25.3 ratio and the variant/HC_D62R [2] was 20.3 ratio.

B8: 4B7 HC N32D+D62R+H103D/LC F31I+D33R (Fab, V domains shown)
VH: QVQLQQSGPGLVKPSQTLSLTCAISGDSVSSDSAAWSWIRQSPGRGLEWLGIIYKRSKWYNRYAVSVKSRITINPDTSKNQFSLQLNSVTPEDTAVYYCARWDSDKHWGFDYWGQGTLVTVSS
VL: DIVMTQSPLSLPVTPGEPASISCRSSQSLVISRGNTYLNWYLQKPGQSPQLLIYKGSNRASGVPDRFSGSGSGTDFTLKISRVEAEDVGVYYCQQYDSYPLTFGQGTKVEIKR
Binder B8 has a variant/HC_D62R [1] of 13.6 ratio and a variant/HC_D62R [2] of 14.6 ratio.

B9: 4B7 HC N32D+D62R+H107M+Y112D/LC F31I+S32R+D33F+N35I+D97T (Fab, V domains shown)
VH: QVQLQQSGPGLVKPSQTLSLTCAISGDSVSSDSAAWSWIRQSPGRGLEWLGIIYKRSKWYNRYAVSVKSRITINPDTSKNQFSLQLNSVTPEDTAVYYCARWHSDKMWGFDDWGQGTLVTVSS
VL: DIVMTQSPLSLPVTPGEPASISCRSSQSLVIRFGITYLNWYLQKPGQSPQLLIYKGSNRASGVPDRFSGSGSGTDFTLKISRVEAEDVGVYYCQQYTSYPLTFGQGTKVEIKR
Work on B9 yielded a variant/HC_D62R [1] of 28.7 ratio and a variant/HC_D62R [2] of 20.6 ratio.

B10: 4B7 HC N32D+D62R+H107M+Y112D/LC F31I+D33R+N35I (Fab, V domains shown)
VH: QVQLQQSGPGLVKPSQTLSLTCAISGDSVSSDSAAWSWIRQSPGRGLEWLGIIYKRSKWYNRYAVSVKSRITINPDTSKNQFSLQLNSVTPEDTAVYYCARWHSDKMWGFDDWGQGTLVTVSS
VL: DIVMTQSPLSLPVTPGEPASISCRSSQSLVISRGITYLNWYLQKPGQSPQLLIYKGSNRASGVPDRFSGSGSGTDFTLKISRVEAEDVGVYYCQQYDSYPLTFGQGTKVEIKR
Work on B10 yielded a variant/HC_D62R [1] of 29.8 ratio and a variant/HC_D62R [2] of 43 ratio.

B11: 4B7 HC N32D+D62R+H107M+Y112D/LC F31I+D33R (Fab, V domains shown)
VH: QVQLQQSGPGLVKPSQTLSLTCAISGDSVSSDSAAWSWIRQSPGRGLEWLGIIYKRSKWYNRYAVSVKSRITINPDTSKNQFSLQLNSVTPEDTAVYYCARWHSDKMWGFDDWGQGTLVTVSS
VL: DIVMTQSPLSLPVTPGEPASISCRSSQSLVISRGNTYLNWYLQKPGQSPQLLIYKGSNRASGVPDRFSGSGSGTDFTLKISRVEAEDVGVYYCQQYDSYPLTFGQGTKVEIKR
For B11, the variant/HC_D62R [1] was 30.1 ratio and the variant/HC_D62R [2] was 27.9 ratio.

B12: 4B7 HC N32D+D62R+H107M+Y112D/LC F31I+N35I (Fab, V domains shown)
VH: QVQLQQSGPGLVKPSQTLSLTCAISGDSVSSDSAAWSWIRQSPGRGLEWLGIIYKRSKWYNRYAVSVKSRITINPDTSKNQFSLQLNSVTPEDTAVYYCARWHSDKMWGFDDWGQGTLVTVSS
VL: DIVMTQSPLSLPVTPGEPASISCRSSQSLVISDGITYLNWYLQKPGQSPQLLIYKGSNRASGVPDRFSGSGSGTDFTLKISRVEAEDVGVYYCQQYDSYPLTFGQGTKVEIKR
In the case of B12, the variant/HC_D62R [1] is reported as 28.8 ratio and the variant/HC_D62R [2] is reported as 30 ratio.

B13: 4B7 HC N32D+D62R+H103D+H107M+Y112D/LC S32R (Fab, V domains shown)
VH: QVQLQQSGPGLVKPSQTLSLTCAISGDSVSSDSAAWSWIRQSPGRGLEWLGIIYKRSKWYNRYAVSVKSRITINPDTSKNQFSLQLNSVTPEDTAVYYCARWDSDKMWGFDDWGQGTLVTVSS
VL: DIVMTQSPLSLPVTPGEPASISCRSSQSLVFRDGNTYLNWYLQKPGQSPQLLIYKGSNRASGVPDRFSGSGSGTDFTLKISRVEAEDVGVYYCQQYDSYPLTFGQGTKVEIKR
B13 gave a variant/HC_D62R [1] of 17.7 ratio and a variant/HC_D62R [2] of 16 ratio.

B14: 4B7 HC N32D+D62R+H107M+Y112D/LC D33F+N35T+Y37F (Fab, V domains shown)
VH: QVQLQQSGPGLVKPSQTLSLTCAISGDSVSSDSAAWSWIRQSPGRGLEWLGIIYKRSKWYNRYAVSVKSRITINPDTSKNQFSLQLNSVTPEDTAVYYCARWHSDKMWGFDDWGQGTLVTVSS
VL: DIVMTQSPLSLPVTPGEPASISCRSSQSLVFSFGTTFLNWYLQKPGQSPQLLIYKGSNRASGVPDRFSGSGSGTDFTLKISRVEAEDVGVYYCQQYDSYPLTFGQGTKVEIKR
Binder B14 has a variant/HC_D62R [1] of 35.7 ratio and a variant/HC_D62R [2] of 57.5 ratio.
